Reference: patent US20260176378A1 (DYAX, published 2026)

B1: M10-C11 (Fab, V domains shown)
VH: EVQLLESGGGLVQPGGSLRLSCAASGFTFSMYPMMWVRQAPGKGLEWVSYISPSGGMTDYADSVKGRFTISRDNSKNTLYLQMNSLRAEDMAVYYCARVAGSSDAFDIWGQGTMVTVSS
VL: DIQMTQSPSSLSASVGDRVTITCRASQSISIYLNWYQQKPEKAPKLLIFAASTLQSGVPSRFSGSGSGTDFTLTISNLQPEDFATYYCQQSHSIPPTFGLGTKVEVK
B2: M10-E06 (Fab, V domains shown)
VH: EVQLLESGGGLVQPGGSLRLSCAASGFTFSLYRMFWVRQAPGKGLEWVSSIWSSGGPTMYADSVKGRFTISRDNSKNTLYLQMNSLRAEDTAVYYCAREYPSTYYFDYWGQGTLVTVSS
VL: DIQMTQSPSSLSASVGDRVTITCRASQSISTYLNWYQQKPGKAPKLLIYGASSLQSGVPSRFSGSGSGTDFTLTISSLQPEDFTIYYCQQSYSDPYTFGQGTKLDIK
B3: M10-D11 (Fab, V domains shown)
VH: EVQLLESGGGLVQPGGSLRLSCAASGFTFSAYPMNWVRQAPGKGLEWVSRISSSGGNTSYADSVKGRFTISRDNSKNTLYLQMNSLRAEDTAVYYCALGYLGYWGQGTLVTVSS
VL: not shown
B4: M10-A12 (Fab, V domains shown)
VH: EVQLLESGGGLVQPGGSLRLSCAASGFTFSLYLMHWVRQAPGKGLEWVSSIYSSGGFTTYADSVKGRFTISRDNSKNTLYLQMNSLRAEDTAVYYCARDTDYGMDVWGQGTTVTVSS
VL: DIQMTQSPLSLSAFVGDRVTITCRASRDISVYLNWYQLKSGKAPKLLIYGASSLQSGVPSRFSGSGSGTDFTLTITSLQPEDFATYYCQQSYSIPFTFGGGTKVETK
B5: M9-H04 (Fab, V domains shown)
VH: EVQLLESGGGLVQPGGSLRLSCAASGFTFSAYTMWWVRQAPGKGLEWVSSIWPSGGSTFYADSVKGRFTISRDNSKNTLYLQMNSLRAEDTAVYYCARTYDSSAGEVDYWGQGTLVTVSS
VL: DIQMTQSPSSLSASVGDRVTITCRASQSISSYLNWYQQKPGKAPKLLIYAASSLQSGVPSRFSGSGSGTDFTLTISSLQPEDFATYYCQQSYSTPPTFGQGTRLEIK
B6: M9-H03 (Fab, V domains shown)
VH: EVQLLESGGGLVQPGGSLRLSCAASGFTFSWYSMGWVRQAPGKGLEWVSYIVPSGGYTMYADSVKGRFTISRDNSKNTLYLQMNSLRAEDTAVYYCARDPGVSYYYYGMDVWGQGTTVTVSS
VL: QYELTQAPSVSVAPGQTASITCSGDKLGNRYTSWYQQKPGQSPVLVIFQDNKRPSGIPERFSGSNSGNTATLTISGTQAMDEADYYCQALDSNTYVFGTGTKVTVL
B7: M10-A03 (Fab, V domains shown)
VH: EVQLLESGGGLVQPGGSLRLSCAASGFTFSPYPMQWVRQAPGKGLEWVSSISSSGGMTEYADSVKGRFTISRDNSKNTLYLQMNSLRAEDTAVYYCARDDYGGKGGAFDIWGQGTMVTVSS
VL: DIQMTQSPSSLSASVGDRVTITCRASQRISFYLNWFQQKPGKAPNLLIYGASSLQSGVPSRFSGSGSGTDFTLTISSLQPKDFGTYYCQQTFSTPNTFGQGTKLEIK
B8: M10-F09 (Fab, V domains shown)
VH: EVQLLESGGGLVQPGGSLRLSCAASGFTFSNYDMMWVRQAPGKGLEWVSYISPSGGFTRYADSVKGRFTISRDNSKNTLYLQMNSLRAEDTATYYCAKDIYYYNWGPSHYFDSWGQGTLVTVSS
VL: DIQMTQSPSSLSASVGDRVTITCRASQTIDDDLIWYQQKPGRAPKLLIYAASSLQSGVPSRFSGSGSGTDFTLTITSLQPEDFATYYCQQSYNIPRTFGQGTKLESK
B9: M10-B09 (Fab, V domains shown)
VH: EVQLLESGGGLVQPGGSLRLSCAASGFTFSWYEMSWVRQAPGKGLEWVSRIWPSGGVTMYADSVKGRFTISRDNSKNTLYLQMNSLRAEDTAVYYCTRTSITTVGMDVWGQGTTVTVSS
VL: DIQMTQSPSSLSASVGDGVTITCRASQSISTYLNWYQQRPGKAPKLLIYGASSLQSGVPSRFSGSGSGTDFTLTISSLQREDFATYYCQQSFSTPWTFGQGTRVEIK

Target: T1, human plasma kallikrein (human, UniProt P03952 20-390; P03952 391-638)
T1 construct: two disulfide-linked chains; NP_000883.2; also called pKal; hpKal
T1 sequence (P03952 20-390 limits assumed, chain 1 of 2): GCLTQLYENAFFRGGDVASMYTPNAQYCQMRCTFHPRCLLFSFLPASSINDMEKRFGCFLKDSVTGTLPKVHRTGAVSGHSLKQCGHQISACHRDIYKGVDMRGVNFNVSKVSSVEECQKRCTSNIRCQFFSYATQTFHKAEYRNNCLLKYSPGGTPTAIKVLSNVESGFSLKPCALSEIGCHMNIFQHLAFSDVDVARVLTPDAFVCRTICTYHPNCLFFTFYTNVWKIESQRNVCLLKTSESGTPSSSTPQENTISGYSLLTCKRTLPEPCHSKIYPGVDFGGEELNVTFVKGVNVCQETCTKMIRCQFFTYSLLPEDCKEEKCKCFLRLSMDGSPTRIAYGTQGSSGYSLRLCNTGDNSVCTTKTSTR
T1 sequence (P03952 391-638 limits assumed, chain 2 of 2): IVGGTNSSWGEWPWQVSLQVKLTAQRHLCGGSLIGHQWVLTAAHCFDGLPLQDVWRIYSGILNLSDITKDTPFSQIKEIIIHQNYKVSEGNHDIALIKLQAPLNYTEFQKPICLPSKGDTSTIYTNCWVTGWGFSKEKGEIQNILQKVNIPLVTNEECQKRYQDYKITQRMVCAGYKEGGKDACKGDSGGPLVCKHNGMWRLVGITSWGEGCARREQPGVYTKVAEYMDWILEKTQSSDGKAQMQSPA
Experiment: ELISA, biotinylated pKal signal over streptavidin background

Binder	ELISA (T/B)
B1	5.3
B2	32.8
B3	6.4
B4	20.8
B5	16.1
B6	4.4
B7	33.7
B8	4.8
B9	14.1
